Substitutions are numbered along the chain they refer to.
B1: F3.121.4-L2H3 (antibody, mouse IgG1, kappa)
heavy: EVQLVQSGAEVKKPGASVKVSCKASGYTFTNYWMHWVRQRPGQGLEWMGEIDPSDNYANYNQEFQGRVTITVDKSASTAYMELSSLRSEDTAVYYCARHDGYFGALDYWGQGTTVTVSSAKTTPPSVYPLAPGSAAQTNSMVTLGCLVKGYFPEPVTVTWNSGSLSSGVHTFPAVLQSDLYTLSSSVTVPSSTWPSETVTCNVAHPASSTKVDKKIVPRDCGCKPCICTVPEVSSVFIFPPKPKDVLTITLTPKVTCVVVDISKDDPEVQFSWFVDDVEVHTAQTQPREEQFNSTFRSVSELPIMHQDWLNGKEFKCRVNSAAFPAPIEKTISKTKGRPKAPQVYTIPPPKEQMAKDKVSLTCMITDFFPEDITVEWQWNGQPAENYKNTQPIMDTDGSYFVYSKLNVQKSNWEAGNTFTCSVLHEGLHNHHTEKSLSHSPGK
light: EIVLTQSPDFQSVTPKEKVTITCSASSSISSNYLHWYQQKPDQSPKLLIKRTSNLASGVPSRFSGSGSGTDFTLTINSLEAEDAATYYCQQASSIPRMFTFGQGTKLEIKRADAAPTVSIFPPSSEQLTSGGASVVCFLNNFYPKDINVKWKIDGSERQNGVLNSWTDQDSKDSTYSMSSTLTLTKDEYERHNSYTCEATHKTSTSPIVKSFNRNEC
notes: humanized antibody of F3.121.4, VL2+VH3, murine IgG1 constant regions
B2: F3.121.4-L3H1 (antibody, mouse IgG1, kappa, V domains shown)
VH: EVQLVQSGAEVKKPGASVKVSCKASGYTFTNYWMHWVRQAPGQRLEWMGEIDPSDNYANYNQEFQGRVTITVDKSASTAYMELSSLRSEDTAVYYCARHDGYFGALDYWGQGTTVTVSS
VL: EIVLTQSPDFQSVTPKEKVTITCSASSSISSNYLHWYQQKPDQSPKFLIYRTSNLASGVPSRFSGSGSGTDFTLTINSLEAEDAATYYCQQASSIPRMFTFGQGTKLEIKR
notes: humanized antibody of F3.121.4, VL3+VH1, murine IgG1 constant regions
B3: F3.121.4-L2H4 (antibody, mouse IgG1, kappa)
heavy: B1 heavy with V5Q
light: B1 light
notes: humanized antibody of F3.121.4, VL2+VH4, murine IgG1 constant regions
B4: F3.121.4-L3H2 (antibody, mouse IgG1, kappa, V domains shown)
VH: B2 VH with R44G
VL: B2 VL
notes: humanized antibody of F3.121.4, VL3+VH2, murine IgG1 constant regions

target: T1, Human CD19-his protein (human, UniProt P15391 20-291); test: ELISA on coated human CD19-His
T1 construct: bought protein; also called recombinant human CD19-His; CD19 full-length protein; not shown: His tag
T1 sequence (looked up): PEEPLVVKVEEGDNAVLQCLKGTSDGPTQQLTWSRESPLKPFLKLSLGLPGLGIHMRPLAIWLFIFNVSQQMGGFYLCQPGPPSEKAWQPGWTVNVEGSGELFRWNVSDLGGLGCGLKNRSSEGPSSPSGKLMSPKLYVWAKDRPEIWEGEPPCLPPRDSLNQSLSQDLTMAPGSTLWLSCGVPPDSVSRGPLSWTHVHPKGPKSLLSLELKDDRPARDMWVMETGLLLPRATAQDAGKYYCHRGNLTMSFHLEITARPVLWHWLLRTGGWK

Binder | EC50 (read off the curve) [pM]
B1 | ~50
B2 | ~50
B3 | ~50
B4 | ~50

target: T2, human CD19 exon1-3-His tag protein (human, UniProt P15391 20-186, limits assumed); test: ELISA, coated human CD19 exon 1-3-His
T2 construct: membrane-distal part of the extracellular region, made in HEK293E cells; not shown: His tag
T2 sequence (looked up): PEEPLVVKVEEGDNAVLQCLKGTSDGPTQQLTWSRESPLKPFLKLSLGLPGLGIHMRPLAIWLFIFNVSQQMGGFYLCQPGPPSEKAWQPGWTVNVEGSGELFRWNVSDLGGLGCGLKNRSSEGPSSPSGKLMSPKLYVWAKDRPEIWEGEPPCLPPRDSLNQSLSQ

Binder | OD450 at 0.0001 nM [OD450] | OD450 at 0.001 nM [OD450] | OD450 at 0.01 nM [OD450] | OD450 at 0.10 nM [OD450] | OD450 at 1.00 nM [OD450] | OD450 at 10 nM [OD450] | OD450 at 100 nM [OD450]
B1 | 0.05 | 0.05 | 0.05 | 0.05 | 0.05 | 0.05 | 0.08
B2 | 0.05 | 0.05 | 0.05 | 0.05 | 0.05 | 0.05 | 0.09
B3 | 0.05 | 0.05 | 0.05 | 0.05 | 0.04 | 0.05 | 0.08
B4 | 0.05 | 0.05 | 0.05 | 0.05 | 0.05 | 0.05 | 0.12

target: T1, Human CD19-his protein; test: SPR Biacore, method of example 7.1, human CD19-His
Protocol: A sample buffer and a running buffer were HBS-EP+ (10 mM HEPES, 150 mM NaCl, 3 mM EDTA and 0.05% surfactant P20) (GE Healthcare; BR-1006-69). The flow-through cell was set to 25° C. The sample block was set to 16° C. Both were pretreated with the running buffer. In each cycle, an antibody to be detected was first captured with a Protein A chip, and then a single concentration of CD19 antigen protein was injected. The binding and dissociation processes of the antibody and the antigen protein were recorded, and finally Glycine pH 1.5 (GE Healthcare; BR-1003-54) was used to complete chip regeneration. The binding was measured by injecting different concentrations of recombinant human CD19-His proteins in a solution for 240 s with a flow rate of 30 μl/min. The concentration started from 200 nM (see the detailed results for the actual concentration in the test) and was diluted at 1:1, making a total of 5 concentrations. The dissociation phase was monitored for up to 600 s and was triggered by switching from sample solution to running buffer. The surface was regenerated by washing with a 10 mM glycine solution (pH 1.5) for 30 s at a flow rate of 30 μl/min. Bulk refractive index difference was corrected by subtracting the response obtained from the goat anti-human Fc surface. Blank injection was also subtracted (=double reference). For calculation of apparent KD and other kinetic parameters, Langmuir 1:1 model was used.
SPR (biacore) detection and data analysis were performed according to the method in example 7.1.

Binder | Kd [pM] | koff [s⁻¹] | kon [M⁻¹ s⁻¹]
B1 | 1380 | 0.000188 | 137000
B2 | 244 | 3.18e-05 | 130000
B3 | 1530 | 0.000186 | 122000
B4 | 0.0498 | 5.65e-09 | 113000

target: T1, Human CD19-his protein; test: ELISA, coated human CD19-His
Protocol: Human CD19-his protein (purchased from ACROBiosystems, catalog number: CD9-H52H2) was diluted with PBS to a final concentration of 4 μg/mL, and then added to a 96-well ELISA plate at 100 μl/well. The plate was sealed with a plastic film and incubated overnight at 4° C., the plate was washed 2 times with PBS the next day, and then a blocking solution [PBS+2% (w/w) BSA] was added for blocking at room temperature for 2 h. The blocking solution was poured off, and 100 nM gradiently diluted CD19 chimeric antibody or control antibody was added at 50 μl/well. After incubation at 37° C. for 2 h, the plate was washed 3 times with PBS. […] TMB substrate was added at 50 μl/well, and incubated at room temperature for 10 min, and then a stop solution (1.0 N HCl) was added at 50 μl/well. The OD450 nm values were read by an ELISA microplate reader (Multimode Plate Reader, EnSight, purchased from Perkin Elmer).

Binder | OD450 at 0.0001 nM [OD450] | OD450 at 0.001 nM [OD450] | OD450 at 0.01 nM [OD450] | OD450 at 0.10 nM [OD450] | OD450 at 1.00 nM [OD450] | OD450 at 10 nM [OD450] | OD450 at 100 nM [OD450]
B1 | 0.1 | 0.14 | 0.39 | 1.55 | 2.47 | 2.33 | 2.32
B2 | 0.1 | 0.14 | 0.39 | 1.62 | 2.42 | 2.37 | 2.17
B3 | 0.1 | 0.14 | 0.39 | 1.53 | 2.36 | 2.27 | 2.34
B4 | 0.1 | 0.14 | 0.42 | 1.6 | 2.36 | 2.3 | 2.28

target: T3, human CD19 on CHO-K1-human CD19 cells (human, UniProt P15391 20-556); test: FACS on CHO-K1-human CD19 cells
T3 construct: whole, on cells; also called CHO-K1-human CD19-2C8
T3 sequence (looked up): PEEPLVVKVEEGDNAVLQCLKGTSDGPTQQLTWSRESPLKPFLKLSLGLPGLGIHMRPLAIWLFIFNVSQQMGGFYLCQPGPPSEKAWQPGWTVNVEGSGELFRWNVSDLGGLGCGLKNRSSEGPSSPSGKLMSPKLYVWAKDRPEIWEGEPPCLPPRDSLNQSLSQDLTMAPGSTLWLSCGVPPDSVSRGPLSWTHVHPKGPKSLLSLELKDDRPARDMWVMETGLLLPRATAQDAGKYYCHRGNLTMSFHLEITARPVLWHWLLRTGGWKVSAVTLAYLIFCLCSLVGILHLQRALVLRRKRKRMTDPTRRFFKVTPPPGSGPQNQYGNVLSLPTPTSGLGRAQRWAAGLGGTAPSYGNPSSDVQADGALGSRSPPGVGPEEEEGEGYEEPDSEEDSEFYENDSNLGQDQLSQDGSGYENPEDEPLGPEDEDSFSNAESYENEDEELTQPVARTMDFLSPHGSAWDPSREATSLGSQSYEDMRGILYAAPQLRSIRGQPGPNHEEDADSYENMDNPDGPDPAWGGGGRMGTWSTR
Protocol: (§1) After the digestion was terminated, the cells were washed 2 times with a PBS buffer; and for suspension cell Raji, the supernatant of the medium was discarded by directly centrifugation, and the cell pellet was washed 2 times with PBS. After counting the cells in the previous step, the cell pellet was resuspended with [PBS+2% (w/w) BSA] blocking solution to 2×10⁶ cells/ml, and added to a 96-well FACS reaction plate at 50 μl/well, and then the sample to be tested was added at 50 μl/well, and incubated on ice for 2 h. The obtained mixture was centrifuged and washed 3 times with a PBS buffer. […] The obtained mixture was centrifuged and washed 5 times with a PBS buffer, and FACS (FACS Canto™, purchased from BD Company) was used for detection and result analysis. Data analysis was performed by software (FlowJo) to obtain the mean fluorescence intensity (MFI) of the cells. And then software (GraphPad Prism8) was used for analysis, data fitting, and EC50 value calculation. […] The same method was used to detect the binding of the chimeric antibodies to endogenous CD19-negative cells, MoLT4 cells (purchased from ATCC, CRL-1582), and CHO-K1 cells.

Binder | EC50 [pM] | Maximum mean fluorescence intensity [MFI]
B1 | 1170 | 52200
B2 | 1130 | 53500
B3 | 1130 | 52000
B4 | 1080 | 52100

target: T4, human CD19 on Raji cells (human, UniProt P15391 20-556); test: FACS on Raji cells
T4 construct: whole, on cells
T4 sequence (looked up): T3 sequence (looked up)
Protocol: as §1

Binder | EC50 [pM] | Maximum mean fluorescence intensity [MFI]
B1 | 450 | 29600
B2 | 380 | 32000
B3 | 370 | 29200
B4 | 420 | 32200

Source: patent publication US20250042994A1 (HAINAN SIMCERE ZAIMING PHARMACEUTICAL, published 2025)
